# Measurements taken from patent US20240228562A1, “NOVEL LIPOCALIN MUTEINS SPECIFIC FOR CONNECTIVE TISSUE GROWTH FACTOR (CTGF)” (PIERIS PHARMACEUTICALS GMBH, priority 2021, published 2024).
# Where a chain is given by its changes, count along the chain named.
# T1: Murine CTGF (Mus musculus, UniProt P29268)
# T1 construct: purchased Abbexa
# T1 sequence (P29268 26-348): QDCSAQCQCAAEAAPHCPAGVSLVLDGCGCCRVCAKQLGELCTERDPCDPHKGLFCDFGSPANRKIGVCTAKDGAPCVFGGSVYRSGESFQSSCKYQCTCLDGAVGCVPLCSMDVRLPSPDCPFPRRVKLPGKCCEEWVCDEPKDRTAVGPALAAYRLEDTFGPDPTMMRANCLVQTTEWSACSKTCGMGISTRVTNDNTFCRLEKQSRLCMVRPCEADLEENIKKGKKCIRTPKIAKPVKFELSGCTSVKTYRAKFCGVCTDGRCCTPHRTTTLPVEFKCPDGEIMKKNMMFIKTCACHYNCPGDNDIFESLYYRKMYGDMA
# B1: SEQ ID NO: 26: optimized CTGF-binding hNGAL lipocalin mutein (protein)
# chain: QDSTSDLIPAPPLSKVPLQQNFQDNQFQGKWYVVGLAGNYRLREDKDPSKMGATIYELKEDKSYDVTQVQFDDKKCLYVIETFVPGSQPGEFTLGNIKVYPTLESQLVRVVSTNYNQHAMVFFKKVYQNREVFWITLYGRTKELTSELKENFIRFSKSLGLPENHIVFPVPIDQCIDG
# modifications: lipocalin mutein
# B2: SEQ ID NO: 27: optimized CTGF-binding hNGAL lipocalin mutein (protein)
# chain: B1 chain with N96A, V99S, T102G, E104T, F123L, Q128G, N129S, R130E, V132Y, W134H
# modifications: lipocalin mutein
# B3: SEQ ID NO: 14: optimized CTGF-binding hNGAL lipocalin mutein (protein)
# chain: QDSTSDLIPAPPLSKVPLQQNFQDNQFQGKWYVVGLAGNAILREDKYPAKMFATIYELKEDKSYDVTSVRFEAKSCIYTIKTFVPGSQPGEFTRGNIKSAPGQTSTLVRVVSTNYNQHAMVFFKHVSQNREIFVITLYGRTKELTSELKENFIRFSKSLGLPENHIVFPVPIDQCIDG
# modifications: lipocalin mutein
# B4: SEQ ID NO: 19: optimized CTGF-binding hNGAL lipocalin mutein (protein)
# chain: B3 chain with Y47Q, I77S, R94A, F123H, H125A, I132S
# modifications: lipocalin mutein
# B5: SEQ ID NO: 16: optimized CTGF-binding hNGAL lipocalin mutein (protein)
# chain: B3 chain with E44T, Y47Q, I77V, R94A, I132F
# modifications: lipocalin mutein
# B6: SEQ ID NO: 21: optimized CTGF-binding hNGAL lipocalin mutein (protein)
# chain: B3 chain with Y47Q, I77S, R94A, H125A, S127R, Q128G, N129A, I132S, V134N, T136A
# modifications: lipocalin mutein
# B7: SEQ ID NO: 20: optimized CTGF-binding hNGAL lipocalin mutein (protein)
# chain: B3 chain with Y47Q, I77S, R94A, F123A, H125A, S127Q, Q128L, I132H, V134F
# modifications: lipocalin mutein
# B8: SEQ ID NO: 17: optimized CTGF-binding hNGAL lipocalin mutein (protein)
# chain: B3 chain with E44T, Y47Q, I77V, I80S, R94A, I132F
# modifications: lipocalin mutein
# B9: SEQ ID NO: 8: optimized CTGF-binding hNGAL lipocalin mutein (protein)
# chain: QDSTSDLIPAPPLSKVPLQQNFQDNQFQGKWYVVGLAGNYGLRTDKRPSKMFATIYELKEDKSYDVTSVRFEQERCHYTIRTFVPGSQPGEFTSGNIGNYPGSYSTLVRVVSTNYNQHAMVFFKSVIQNREYFAITLYGRTKELTSELKENFIRFSKSLGLPENHIVFPVPIDQCIDG
# modifications: lipocalin mutein
# B10: SEQ ID NO: 28: optimized CTGF-binding hNGAL lipocalin mutein (protein)
# chain: QDSTSDLIPAPPLSKVPLQQNFQDNQFQGKWYVVGLAGNYRLREDKDPSKMGATIYELKEDKSYDVTQVQFDDKKCLYVIETFVPGSQPGEFTLGAIKSYPGLTSQLVRVVSTNYNQHAMVFVKKVWPNLEYFQIVLYGRTKELTSELKENFIRFSKSLGLPENHIVFPVPIDQCIDG
# modifications: lipocalin mutein
# B11: SEQ ID NO: 13: optimized CTGF-binding hNGAL lipocalin mutein (protein)
# chain: B3 chain with A73N, I77V, I80S, R94T, I132F
# modifications: lipocalin mutein
# B12: SEQ ID NO: 12: optimized CTGF-binding hNGAL lipocalin mutein (protein)
# chain: B3 chain with A73N, I77V, R94T, I132F
# modifications: lipocalin mutein
# B13: SEQ ID NO: 18: optimized CTGF-binding hNGAL lipocalin mutein (protein)
# chain: B3 chain with L36I, E44D, A73N, R94H, A100H
# modifications: lipocalin mutein
# B14: SEQ ID NO: 11: optimized CTGF-binding hNGAL lipocalin mutein (protein)
# chain: B3 chain with Y47Q, I77S, I80S, R94A, I132T
# modifications: lipocalin mutein
# System: not listed separately
# Assay: Thermal stability assessment by nanoDSC
# Assay type: physicochemical
# Conditions: 1 mg/mL in PBS, scan 25-100° C. at 1° C./min
# Protocol: To determine the melting temperatures (Tms) of the lipocalin muteins, which is a general indicator for folding stability, the CTGF specific muteins, at a protein concentration of 1 mg/mL in PBS (Gibco), were scanned (25-100° C.) at 1° C./min using a capillary nanoDSC instrument (CSC 6300, TA Instruments). […] Several unfolding events can contribute to the observed thermogram. In cases with multiple transitions, the one with the major unfolding energy best represents the overall protein fold and is reported. Muteins were produced as described in Example 3. SEQ ID NOs: 3, 7, 9, 25, and 29 were expressed using E. coli, the other muteins were expressed using CHO cells.
# The resulting maximum melting temperatures as well as the onset temperature of melting for exemplary lipocalin muteins and fusion proteins are listed in Table 3 below.
row,Molecule,ONSET MELTING [°C]
1,B1,62
2,B2,52
3,B3,57
4,B4,49
5,B5,59
6,B6,55
7,B7,46
8,B8,59
9,B9,49
10,B10,55

# Same assay, conditions: 1 mg/mL in PBS, scan 25-100° C. at 1° C./min, major transition
row,Molecule,TM [°C]
1,B1,71
2,B2,64
3,B3,68
4,B4,65
5,B5,73
6,B6,65
7,B7,61
8,B8,74
9,B9,75
10,B10,65

# Target: T2, human CTGF (Homo sapiens, UniProt P29279)
# T2 construct: purchased Creative Biomart
# Assay: SPR binding kinetics and affinity, human CTGF
# Parameters: key to human CTGF kon / human CTGF koff / human CTGF KD: B binding without determination of kinetics constants
# Conditions: 25° C., 1:1 binding model
# Protocol: (§1) Surface plasmon resonance (SPR) was used to measure binding kinetics and affinity of the representative lipocalin muteins disclosed herein.
# (§2) The binding of exemplary lipocalin muteins to human (Creative Biomart), cynomolgus, rat (R&D Systems) and mouse CTGF (Abbexa) was determined by SPR using a Biacore instrument (Cytiva, formerly GE Healthcare). Some targets were fused to a human IgG1 Fc tag, and captured via the anti-human IgG antibody kit, others were directly immobilized.
# (§3) For some measurements, human CTGF with a human IgG1 Fc Tag or rat or murine CTGF without a tag were directly immobilized to a CM5 Chip. The carboxyl groups on the chip were activated using 1-ethyl-3-(3-dimethylaminopropyl)-carbodiimide (EDC) and N-hydroxysuccinimide (NHS). Subsequently, the targets at a concentration of 3-5 μg/mL in 10 mM sodium acetate (pH) 4.5 were applied at a flow rate of 10 μL/min until an immobilization level of 300-1100 resonance units was achieved. Residual non-reacted NHS-esters were blocked by passing a solution of 1 M ethanolamine across the surface. The reference channel was activated/deactivated. For the capture setting, targets with an IgG Fc Tag at 0.25-2.5 μg/mL in HBS-EP+ buffer were captured by the anti-human IgG-Fc antibody at the chip surface for 180 s at a flow rate of 10 μL/min.
# (§4) The binding assay was carried out with a contact time of 180 s, a dissociation time of 900-3600 s and a flow rate of 30 μL/min. All measurements were performed at 25° C. […] For the directly immobilized targets, the same regeneration conditions were used. Prior to the protein measurements, three startup cycles were performed for conditioning purposes. Data were evaluated with Biacore Evaluation software. Double referencing was used and the 1:1 binding model was used to fit the raw data.
# T2 sequence (P29279 with tags, fused parts or gaps H83D): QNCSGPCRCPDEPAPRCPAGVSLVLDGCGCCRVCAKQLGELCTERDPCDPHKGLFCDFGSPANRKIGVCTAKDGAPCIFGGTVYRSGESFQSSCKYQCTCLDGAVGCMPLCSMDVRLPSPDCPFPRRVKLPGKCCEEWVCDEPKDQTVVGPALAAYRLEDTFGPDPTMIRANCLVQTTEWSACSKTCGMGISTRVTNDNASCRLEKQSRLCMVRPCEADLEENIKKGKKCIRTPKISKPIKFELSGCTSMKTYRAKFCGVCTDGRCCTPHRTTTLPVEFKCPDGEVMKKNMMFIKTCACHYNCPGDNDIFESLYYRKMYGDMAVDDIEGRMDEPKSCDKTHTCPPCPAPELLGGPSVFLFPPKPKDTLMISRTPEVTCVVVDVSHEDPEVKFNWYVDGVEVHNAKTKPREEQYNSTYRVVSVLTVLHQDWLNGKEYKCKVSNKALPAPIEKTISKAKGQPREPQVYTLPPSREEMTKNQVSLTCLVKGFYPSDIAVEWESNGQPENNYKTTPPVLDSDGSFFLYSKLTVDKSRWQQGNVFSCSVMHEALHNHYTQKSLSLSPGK
row,human CTGF koff [s⁻¹],Molecule
1,3.06e-05,B1
2,2.45e-05,B2
3,5.34e-05,B3
4,5.2e-05,B4
5,7.02e-05,B5
6,6.63e-05,B6
7,2.51e-06,B11
8,0.000133,B12
9,3.05e-06,B13
10,0.000108,B14
11,0.000114,B9
12,2.61e-05,B10

# Target: T3, human CTGF (Homo sapiens, UniProt P29279, H83D)
# T3 construct: purchased Creative Biomart
# Assay: SPR binding kinetics and affinity, human CTGF
# Parameters: key to human CTGF kon / human CTGF koff / human CTGF KD: B binding without determination of kinetics constants
# Conditions: 25° C., 1:1 binding model
# Protocol: as §1, §2, §3, §4
# T3 sequence (P29279 with tags, fused parts or gaps H83D): as above
human CTGF kon,human CTGF KD,human CTGF koff,Molecule
23200 M⁻¹ s⁻¹,–,–,B1
30500 M⁻¹ s⁻¹,–,–,B2
102000 M⁻¹ s⁻¹,–,–,B3
56600 M⁻¹ s⁻¹,–,–,B4
92300 M⁻¹ s⁻¹,–,–,B5
127000 M⁻¹ s⁻¹,–,–,B6
51000 M⁻¹ s⁻¹,–,–,B11
55600 M⁻¹ s⁻¹,–,–,B12
B,B,B,B7
40900 M⁻¹ s⁻¹,–,–,B13
B,B,B,B8
44400 M⁻¹ s⁻¹,–,–,B14
45400 M⁻¹ s⁻¹,–,–,B9
50400 M⁻¹ s⁻¹,–,–,B10

# Target: T1, Murine CTGF
# Assay: SPR binding kinetics and affinity, murine CTGF
# Parameters: key to Murine CTGF kon / Murine CTGF koff / Murine CTGF KD: B binding without determination of kinetics constants
# Conditions: 25° C., 1:1 binding model
# Protocol: as §1, §2, §3, §4
# The values determined for kon, koff and the resulting equilibrium dissociation constant (KD) for exemplary lipocalin muteins are summarized in Table 4.
Murine CTGF koff,Murine CTGF kon,Murine CTGF KD,Molecule
0.000208 s⁻¹,35300 M⁻¹ s⁻¹,–,B1
0.000172 s⁻¹,41400 M⁻¹ s⁻¹,–,B2
7.03e-05 s⁻¹,190000 M⁻¹ s⁻¹,–,B3
2.54e-05 s⁻¹,93200 M⁻¹ s⁻¹,–,B4
6.34e-05 s⁻¹,161000 M⁻¹ s⁻¹,–,B5
3.94e-05 s⁻¹,228000 M⁻¹ s⁻¹,–,B6
B,B,B,B11
0.000128 s⁻¹,91400 M⁻¹ s⁻¹,–,B12
B,B,B,B7
B,B,B,B13
B,B,B,B8
8.19e-05 s⁻¹,80100 M⁻¹ s⁻¹,–,B14
0.000131 s⁻¹,72000 M⁻¹ s⁻¹,–,B9
8.23e-05 s⁻¹,60700 M⁻¹ s⁻¹,–,B10
